Data set [1] has as its target T1, talin-1 R7–R8 fragment, wildtype (residues 1355–1652) (mouse, UniProt P26039 1355-1652).
T1 construct: talin-1, mouse, R7–R8 domains, residues 1355–1652, made from full-length mouse talin-1 as template; also called R7–R8 WT; Wildtype R7–R8; source: E. coli BL21 (DE3), purified (HisTrap HP, HiTrap Q HP anion exchange)
The data set can be described thus: SEC; Vd1 and talin R7–R8 incubated at a 2:1 ratio at a concentration of 100 µM, analysed at room temperature; elution fractions on SDS-PAGE. The settings on record: both partners purified. For orientation: In gel filtration, larger molecules generally elute earlier.

Data set [2] deals with T2, talin-1 R7–R8 fragment (residues 1355–1652) with mutation R1368W (mouse, UniProt P26039 1355-1652, R1368W).
T2 construct: talin-1, mouse, R7–R8 domains, residues 1355–1652, with R1368W; The mutation is a somatic mutation of human cancers (COSMIC; also in the 1000 Genomes database), put into the mouse talin-1 fragment by site-directed mutagenesis; also called R7–R8 R1368W; source: E. coli BL21 (DE3), purified (HisTrap HP, HiTrap Q HP anion exchange)
T2 sequence (P26039 1355-1652 R1368W): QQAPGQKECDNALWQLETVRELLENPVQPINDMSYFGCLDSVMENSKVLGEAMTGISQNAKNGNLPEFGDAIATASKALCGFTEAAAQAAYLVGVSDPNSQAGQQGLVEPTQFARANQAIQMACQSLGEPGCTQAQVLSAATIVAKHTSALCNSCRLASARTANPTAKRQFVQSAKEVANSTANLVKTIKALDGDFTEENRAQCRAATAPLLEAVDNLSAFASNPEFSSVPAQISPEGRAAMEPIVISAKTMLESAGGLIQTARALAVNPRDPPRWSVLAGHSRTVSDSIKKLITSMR
The data set is described as above. The settings on record: both partners purified.

Data set [3] deals with T3, talin-1 R7–R8 fragment (residues 1355–1652) with mutation Y1389C (mouse, UniProt P26039 1355-1652, Y1389C).
T3 construct: talin-1, mouse, R7–R8 domains, residues 1355–1652, with Y1389C; The mutation is a somatic mutation of human cancers (COSMIC), put into the mouse talin-1 fragment by site-directed mutagenesis; also called R7–R8 Y1389C; source: E. coli BL21 (DE3), purified (HisTrap HP, HiTrap Q HP anion exchange)
T3 sequence (P26039 1355-1652 Y1389C): as the sequence (P26039 1355-1652 R1368W) above, with W14R, Y35C counted along it
Described as above. The settings on record: both partners purified.

Data set [4] has as its target T1, talin-1 R7–R8 fragment, wildtype …. The data set can be described thus: fluorescence polarisation; R7–R8 protein serially diluted from 60 µM with KANK1 (30–68) peptide at 1 µM, and from 75 µM with RIAM (4–30) peptide at 1 µM; 20 °C; CLARIOstar plate reader; one-site total binding equation. The conditions noted are these: both partners purified. A general note: Polarisation of emitted light reports the rotation of a fluorescent probe.

Data set [5] concerns the target T2, talin-1 R7–R8 fragment (residues …). The description is as above. The settings on record: both partners purified.
Data set [6] deals with T3, talin-1 R7–R8 fragment (residues …). The data set is described as above. The settings on record: both partners purified.
Data set [7] deals with the molecule itself. In words: SEC-MALS; 100 μM protein, room temperature, Superdex 75 column; Viscotek SEC–MALS 9 and RI detector; dimer or monomer.

No end group written: not given here.

T1 sequence (P26039 1355-1652): as the sequence (P26039 1355-1652 R1368W) above, with W14R counted along it

B1: vinculin Vd1 domain (residues 1–258) (domain or fragment, UniProt P12003 1-258, looked up)
chain: MPVFHTRTIESILEPVAQQISHLVIMHEEGEVDGKAIPDLTAPVSAVQAAVSNLVRVGKETVQTTEDQILKRDMPPAFIKVENACTKLVRAAQMLQADPYSVPARDYLIDGSRGILSGTSDLLLTFDEAEVRKIIRVCKGILEYLTVAEVVETMEDLVTYTKNLGPGMTKMAKMIDERQQELTHQEHRVMLVNSMNTVKELLPVLISAMKIFVTTKNTKSQGIEEALKNRNFTVEKMSAEINEIIRVLQLTSWDEDAW
notes: vinculin, Vd1 domain, residues 1–258
What is called stoichiometry N is the number of molecules, sites or subunits per partner or assembly. For B1, the “stoichiometry N” value was 1 in data set [1], 1 in data set [2] and 2 in data set [3].

B2: RIAM (4–30) peptide (peptide)
peptide: SEDIDQMFSTLLGEMDLLTQSLGVDTC
modifications: also: BODIPY or Fluorescein dye coupled via C-terminal Cys
notes: RIAM, mouse, printed as residues 4–30; added C-terminal cysteine for coupling of the dye; also called RIAM peptide; LD-motif of RIAM; source: synthetic peptide (GLBiochem, China)
As for B2, the binding result in data set [4], in data set [5] and in data set [6] was “binds” throughout.

B3: talin-1 R13–DD fragment, wildtype (residues 2300–2541) (domain or fragment, mouse, UniProt P26039 2300-2541, looked up)
chain: DPTVIAENELLGAAAAIEAAAKKLEQLKPRAKPKEADESLNFEEQILEAAKSIAAATSALVKAASAAQRELVAQGKVGAIPANALDDGQWSQGLISAARMVAAATNNLCEAANAAVQGHASQEKLISSAKQVAASTAQLLVACKVKADQDSEAMKRLQAAGNAVKRASDNLVKAAQKAAAFEDQENETVVVKEKMVGGIAQIIAAQEEMLRKERELEEARKKLAQIRQQQYKFLPSELRDEH
notes: talin-1, mouse, R13 and dimerisation domain (DD), residues 2300–2541; Constitutive dimer by SEC–MALS; also called R13–DD WT; Talin R13–DD wildtype; source: E. coli BL21 (DE3), purified (HisTrap HP, HiTrap Q HP anion exchange)
As for B3, the “stoichiometry N” value in data set [7] stood at 2.
